Measurements published in patent publication US20250163140A1 (Kyowa Kirin, published 2025).
Where “and” joins values, the source holds several entries; their conditions need not be identical. Identical values can stand only once. Like-named read-outs stand apart in the source and are kept apart here. Each block holds one binder with its values, some of them ahead of it.

Key:
[1] = biological target: T1, Recombinant Human FGF-23 (R&D Systems, Cat No. 2604-FG-025/CF) (human, UniProt Q9GZV9 25-251); experiment: cell-based or functional assay
T1 sequence (looked up): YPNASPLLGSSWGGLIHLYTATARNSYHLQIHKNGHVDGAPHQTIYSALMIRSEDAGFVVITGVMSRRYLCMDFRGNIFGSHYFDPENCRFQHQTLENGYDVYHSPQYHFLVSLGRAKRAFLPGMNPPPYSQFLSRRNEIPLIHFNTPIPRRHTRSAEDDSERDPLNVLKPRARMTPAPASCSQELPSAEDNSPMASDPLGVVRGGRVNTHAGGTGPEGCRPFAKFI

[2] = biological target: T1, Recombinant Human FGF-23 (R&D Systems, …); experiment: cell-based or functional assay; remark: listed apart in the source
[3] = biological target: T1, Recombinant Human FGF-23 (R&D Systems, …); experiment: SPR, antibody captured on Protein A chip, FGF-23 analyte
[4] = biological target: T1, Recombinant Human FGF-23 (R&D Systems, …); experiment: SPR, antibody captured by anti-human IgG, FGF-23 analyte
[5] = biological target: T1, Recombinant Human FGF-23 (R&D Systems, …); experiment: as above; remark: listed apart in the source
[6] = biological target: T1, Recombinant Human FGF-23 (R&D Systems, …); experiment: as above; remark: listed apart in the source
[7] = biological target: T1, Recombinant Human FGF-23 (R&D Systems, …); experiment: cell-based or functional assay; remark: listed apart in the source
[8] = biological target: T1, Recombinant Human FGF-23 (R&D Systems, …); experiment: SPR, antibody captured by anti-human IgG, FGF-23 analyte; remark: listed apart in the source
[9] = biological target: T1, Recombinant Human FGF-23 (R&D Systems, …); experiment: cell-based or functional assay; remark: listed apart in the source
[10] = biological target: T1, Recombinant Human FGF-23 (R&D Systems, …); experiment: cell-based or functional assay; remark: listed apart in the source
[11] = biological target: T1, Recombinant Human FGF-23 (R&D Systems, …); experiment: SPR, antibody captured on Protein A chip, FGF-23 analyte; remark: listed apart in the source
[12] = biological target: T2, human FcRn (human FcRn-His tag with human β2 microglobulin) (human, UniProt P55899 24-297; P61769 21-119); experiment: SPR pH 6, FcRn-His captured by anti-His, antibody analyte
T2 construct: also called h FcRn; hFcRn

[13] = biological target: T1, Recombinant Human FGF-23 (R&D Systems, …); experiment: SPR, antibody captured on Protein A chip, FGF-23 analyte; remark: listed apart in the source

FGF23 neutralizing activity, fold against antibody A [1]: 2 fold
FGF23 neutralizing activity IC50 (luciferase promoter assay) [2]: 1.5 ng/mL
Kd [3]: 20.2 pM
B1: antibody A-10 (antibody, V domains shown)
VH: QVQLVQSGAEVKKPGASVKVSCKASGYTFTNHYMHWVRQAPGQGLEWMGIINPISGSTSNAQKFQGRVTMTRDTSTSTVYMELSSLRSEDTAVYYCARDYVDAFDFWGQGTMVTVSS
VL: AIQLTQSPSSLSASVGDRVTITCRASQGISSALVWYQQKPGKAPKLLIYDASSLESGVPSRFSGSGSGTDFTLTISSLQPEDFATYYCQQFYDDFDFGPGTKVDIK
notes: not shown: human kappa chain constant region

Kd [4]: 2.06 pM and 2.6 pM and 3.76 pM
Kd [5]: 9.93 pM
Kd [6]: 3.76 pM and 4.15 pM
FGF23 neutralizing activity IC50 (luciferase promoter assay) [7]: 3.3 ng/mL
FGF23 neutralizing activity IC50 (luciferase promoter assay), antibody A in same measurement lot [7]: 3.1 ng/mL and 3.3 ng/mL
Kd [8]: 4.51 pM
kon [8]: 9.12e+07 M⁻¹ s⁻¹
FGF23 neutralizing activity IC50 (luciferase promoter assay) [9]: 1.4 ng/mL
FGF23 neutralizing activity IC50 (luciferase promoter assay) [10]: 1.2 ng/mL
FGF23 neutralizing activity IC50 (luciferase promoter assay) [2]: 3.2 ng/mL
FGF23 neutralizing activity IC50 (luciferase promoter assay), antibody A in same measurement lot [2]: 3.2 ng/mL and 2.8 ng/mL
Kd [11]: 8.77 pM
Kd [3]: 14.4 pM
B2: antibody A (antibody, human IgG1)
heavy: not shown
light: AIQLTQSPSSLSASVGDRVTITCRASQGISSALVWYQQKPGKAPKLLIYDASSLESGVPSRFSGSGSGTDFTLTISSLQPEDFATYYCQQFNDYFTFGPGTKVDIK
notes: Human IgG1 antibody, kappa light chain; also called A_1; A_2; not shown: human kappa chain constant region

Kd [12]: 310000 pM
B3: antibody A_G2_LS (antibody)
heavy: QVQLVQSGAEVKKPGASVKVSCKASGYTFTNHYMHWVRQAPGQGLEWMGIINPISGSTSNAQKFQGRVTMTRDTSTSTVYMELSSLRSEDTAVYYCARDIVDAFDFWGQGTMVTVSSASTKGPSVFPLAPCSRSTSESTAALGCLVKDYFPEPVTVSWNSGALTSGVHTFPAVLQSSGLYSLSSVVTVPSSNFGTQTYTCNVDHKPSNTKVDKTVERKCCVECPPCPAPPVAGPSVFLFPPKPKDTLMISRTPEVTCVVVDVSHEDPEVQFNWYVDGVEVHNAKTKPREEQFNSTFRVVSVLTVVHQDWLNGKEYKCKVSNKGLPAPIEKTISKTKGQPREPQVYTLPPSREEMTKNQVSLTCLVKGFYPSDIAVEWESNGQPENNYKTTPPMLDSDGSFFLYSKLTVDKSRWQQGNVFSCSVLHEALHSHYTQKSLSLSPGK
light: AIQLTQSPSSLSASVGDRVTITCRASQGISSALVWYQQKPGKAPKLLIYDASSLESGVPSRFSGSGSGTDFTLTISSLQPEDFATYYCQQFNDYFTFGPGTKVDIK
notes: not shown: human kappa chain constant region; copies: 2 + 2

Kd [12]: 116000 pM
B4: antibody A_IgG4PE_R409K_LS (antibody)
heavy: QVQLVQSGAEVKKPGASVKVSCKASGYTFTNHYMHWVRQAPGQGLEWMGIINPISGSTSNAQKFQGRVTMTRDTSTSTVYMELSSLRSEDTAVYYCARDIVDAFDFWGQGTMVTVSSASTKGPSVFPLAPCSRSTSESTAALGCLVKDYFPEPVTVSWNSGALTSGVHTFPAVLQSSGLYSLSSVVTVPSSSLGTKTYTCNVDHKPSNTKVDKRVESKYGPPCPPCPAPEFEGGPSVFLFPPKPKDTLMISRTPEVTCVVVDVSQEDPEVQFNWYVDGVEVHNAKTKPREEQFNSTYRVVSVLTVLHQDWLNGKEYKCKVSNKGLPSSIEKTISKAKGQPREPQVYTLPPSQEEMTKNQVSLTCLVKGFYPSDIAVEWESNGQPENNYKTTPPVLDSDGSFFLYSKLTVDKSRWQEGNVFSCSVLHEALHSHYTQKSLSLSLGK
light: AIQLTQSPSSLSASVGDRVTITCRASQGISSALVWYQQKPGKAPKLLIYDASSLESGVPSRFSGSGSGTDFTLTISSLQPEDFATYYCQQFNDYFTFGPGTKVDIK
notes: as for B3

FGF23 neutralizing activity, fold against antibody A [1]: 3 fold
FGF23 neutralizing activity IC50 (luciferase promoter assay) [2]: 1 ng/mL
fold antigen binding activity against antibody A [13]: 2 fold
Kd [3]: 6.87 pM
B5: antibody A-9 (antibody, V domains shown)
VH: QVQLVQSGAEVKKPGASVKVSCKASGYTFTNHYMHWVRQAPGQGLEWMGIINPISGSTSNAQKFQGRVTMTRDTSTSTVYMELSSLRSEDTAVYYCARDAVDAFDFWGQGTMVTVSS
VL: AIQLTQSPSSLSASVGDRVTITCRASQGISSALVWYQQKPGKAPKLLIYDASSLESGVPSRFSGSGSGTDFTLTISSLQPEDFATYYCQQFWDDFDFGPGTKVDIK
notes: as for B1
